The source of these data is paper PMC10009755 (Journal of Medicinal Chemistry, 2023).

The assay has as its target T1, wild-type ubiquitin (UniProt P0CG48 1-76).
T1 construct: ubiquitin, the cut product of the ubiquitin precursors; called 'wild-type ubiquitin'
In words: SPR; USP21 immobilised by amine coupling on a CM5 chip; Biacore S200, A-B-A injection; 1 uM compound 18 as analyte A, then ubiquitin titrated in 1:2 dilutions from 25 uM; 15 °C. The following applies: both partners purified.

B1: human USP21 (Q9UK80, 209-563) (domain or fragment, UniProt Q9UK80 209-563, looked up)
chain: SGHVGLRNLGNTCFLNAVLQCLSSTRPLRDFCLRRDFRQEVPGGGRAQELTEAFADVIGALWHPDSCEAVNPTRFRAVFQKYVPSFSGYSQQDAQEFLKLLMERLHLEINRRGRRAPPILANGPVPSPPRRGGALLEEPELSDDDRANLMWKRYLEREDSKIVDLFVGQLKSCLKCQACGYRSTTFEVFCDLSLPIPKKGFAGGKVSLRDCFNLFTKEEELESENAPVCDRCRQKTRSTKKLTVQRFPRILVLHLNRFSASRGSIKKSSVGVDFPLQRLSLGDFASDKAGSPVYQLYALCNHSGSVHYGHYTALCRCQTGWHVYNDSRVSPVSENQVASSEGYVLFYQLMQEPPR
notes: cDNA optimized for expression in E. coli; The His tag is thrombin-cleavable; also called recombinant USP21; source: E. coli BL21(DE3), purified (Ni-NTA, MonoS cation exchange, SEC)
Regarding B1, the binding result was “binds”.
